Key:
[1] = biological target: T1, receptor-binding domain (RBD) of the wild-type SARS-CoV-2 spike protein (SARS-CoV-2, UniProt P0DTC2 333-527); test: BLI; settings: both partners purified
T1 construct: also called SARS-CoV-2 RBD

[2] = biological target: T1, receptor-binding domain (RBD) of the …; test: cell-based or functional assay
[3] = biological target: T1, receptor-binding domain (RBD) of the …; test: ELISA; settings: both partners purified

B1: hRBD5 (antibody, V domains shown)
VH: QVQLQQWGAGLLQPSETLSLTCAVYGGSFSDYYWSWIRQPPGRGLEWIGEIDHSGSTNYNPSLKSRVTILVDTSKNQFSLKLSSVTAADTAVYYCARAHLIGHCGDGGCYSGPDPSSWFDPWGQGTLVIVSS
VL: SSELTQDPAVSVALGQTVRITCQGDSLRRYFASWYQQKPGQAPVLVIYGKNIRPSGIPDRFSGSSSGNTGSLTITGAQAEDEADYYCHSRDSSGHHPLFGGGTKLTVL
Kd [1]: 127 pM
other [2]: 10.7 ng/mL

B2: hRBD6 (antibody, V domains shown)
VH: QVQLQQWGAGLLKPSETLSLSCAVYGGAFSDYYWSWIRQPPGKGLEWIGEIDLSGSTNYNPSLKSRVTISVDTSKNQFSLKLISVTAADTAVYYCARTHLIGYCSGGSCYSGPDPSNWFDPWGQGTLVTVSS
VL: SSELTQDPAVSVALGQTVRITCQGDSLRSYYASWYQQKPGQAPVLVIYGKNNRPSGIPDRFSGSSSGNTASLTITGAQAEDEADYYCNSRDTSGHHPVFGGGTKLTVL
Kd [1]: 5090 pM
other [2]: 32.7 ng/mL

B3: mRBD5 (antibody, V domains shown)
VH: QVQLQQPGAELVKPGASVKVSCKASGYTFTSYWMHWVKQRPGQGLEWIGRIHPSDSDTNYNQKFKGKATLTVDKSSSTAYMQLSSLTSEDSAVYYCAIDWDGDYWGQGTTLTVSS
VL: DIVMSQSPSSLAVSAGEKVTMSCKSSQSLLNSRTRKNYLAWYQQKPGQSPKLLIYWASTRESGVPDRFTGSGSGTDFTLTISSVQAEDLAVYYCKQSYNLWTFGGGTKLEIK
EC50 [3]: 320 pM

B4: mRBD6 (antibody, V domains shown)
VH: QVQLQQPGAELVKPGASVKVSCKASGYTFTSYWMHWVKQRPGQGLEWIGRIHPSDSDTNYNQKFKGKATLTVDKSSSTAYMQLSSLTSEDSAVYYCAMDWDVDYWGQGTTLTVSS
VL: DIVMSQSPSSLAVSAGEKVTMSCKSSQSLLNSRTRKNYLAWYQQKPGQSPKLLIYWASTRESGVPDRFTGSGSGTDFTLTISSVQAEDLAVYYCKQSYNLLTFGAGTKLELK
EC50 [3]: 393 pM

B5: hRBD10 (antibody, V domains shown)
VH: EVQLVESGGGLVQPGGSLRLSCSASGFTFTTYNMNWVRQAPGKGLEWVSYISSSSSTIYYADSVEGRFTISRDNAKNSLYLQMNSLRDEDTAVYYCARGVGATSYYYHGMDVWGQGTTVSVSS
VL: DIQMTQSPSSLSASVGDRVTITCRASQSIYSYLNWYKQKAGKAPKLLIYAASSLQSGVPSRFSGSGSGTDFTLTIISLQPEDFATYYCQQSYSTPPTFGQGTKVEIK
Kd [1]: 173 pM

B6: hRBD15 (antibody, V domains shown)
VH: QVQLVQSGAEVKKPGASVKVSCKASGYTFTSQYMHWVRQAPGQGLEWMGIINPSGGSTSYAQKFQGRVTMTSDTSTSTVYMELSSLRSEDTAVYYCARDIYFVPARGGFDPWGQGTLVTVSS
VL: EIVLTQSPGTLSLSPGERATLSCRASQSIISSYLAWYQQKPGQAPRLLIYGASSRATGIPDRFSGSGSGTDFTLTISRLEPEDFAVYYCQQSGSAPRYTFGQGTKLEIK
Kd [1]: 38.2 pM
other [2]: 64400 ng/mL

B7: hRBD14 (antibody, V domains shown)
VH: EVQLVESGGGLVQPGGSLRLSCAASGFSFSSSDMHWVRQATGKGLEWVSGIGTSGDTYYLGSVKGRFTISRDDAKNSFYLQMNSLRAGDTAVYYCARGEMAATGLWYYFDYWGQGTLVTVSS
VL: not shown
Kd [1]: 618 pM

B8: mRBD11 (antibody, V domains shown)
VH: QVQLQQSGAELARPGASVKLSCKASGYTFISNGISWVKQRTGQGLEWIGEIYPRNGNTYYNEKFKGKATLTADKSSSTAYMELRSLTSEDSAVFFCARDYYYGNFDYWGQGTTLTVSS
VL: NIVLTQSPASLAVSLGQRATISCRASESVDSYGNSFMHWYQQKPGQPPKLLIYLASNLESGVPARFSGSGSRTDFTLTIDPVEADDAATYYCQQNNEDPYTFGGGTKLEIK
EC50 [3]: 82300 pM

B9: hRBD3 (antibody, V domains shown)
VH: QLQLQESGPRLVRPSETLSLTCTVSGGSINSGTHYCGWIRQSPGKGLEWIGSIYYSGTTYYNPSLKSRVTISVDTSKNQFSLKLSSVTAADTAVYFCARRRAGSYFKDLSDYWGQGTLVTVSS
VL: NFMLTQPHSVSESPGKTVTISCTRSSGSIASNYVQWYQQRPGGAPTTVIYEDNQRPSGVPDRFSGSIDTSSNSASLTISGLKTDDEADYYCQSYDSTNHEVFGGGTKLTVL
Kd [1]: < 1 pM
other [2]: 11.6 ng/mL

B10: hRBD4 (antibody, V domains shown)
VH: QLQLQESGPGLVKPSETLSLTCTVSGGSISTSSHYCAWIRQPPGKGLEWIGSIYYRGSTYYNPSLKSRVTISVDTSKNHFSLKLSSVTAADTAVYYCARRRAGSYYKDLFDYWGQGTLVTVSS
VL: NFMLTQPHSVSESPGKTVTISCTRSSGSIASNYVQWYQQRPGSAPTTVIYEDNQRPSGVPDRFSGSIDSSSNSASLTISGLKTEDEADYYCQSYDNSNHEVFGGGTKLTVL
Kd [1]: 491 pM
other [2]: 8.9 ng/mL

B11: mRBD10 (antibody, V domains shown)
VH: QVQLKQSGAELVRPGASVKLSCKASGYTFTDYYINWVKQRPGQGLEWIARIYPGSGNTYYNEKFKGKATLTAEKSSSTAYMQLSSLTSEDSAVYFCARDYGSSYVDYFDYWGQGTTLTVSS
VL: DIQMTQTTSSLSASLGDRVTISCRASQDISNYLNWYQQKPDGTVKLLIYYTSRLHSGVPSRFSGSGSGTDYSLTISNLEQEDIATYFCQQGNTLPLTFGAGTKLELK
EC50 [3]: 189 pM

B12: hRBD9 (antibody, V domains shown)
VH: EVQLVESGGGLIQPGGSLRLSCAASGLTVSSNYMNWVRQAPGKGLEWVSVLYSGGSTYYADSVKGRFTISRDNSKNTLYLQMNSLRAEDTAVYYCARDLVAYGMDVWGQGTTVTVSS
VL: DIQLTQSPSFLSASVGDRVTITCRASQGISSDLAWYQQKPGKAPKLLIYAASTLQSGVPSRFSGSGSGTEFTLTISSLQPEDFATYYCQQLNSYPTFGQGTRLEIK
Kd [1]: 126 pM
other [2]: 20.2 ng/mL

B13: hRBD8 (antibody, V domains shown)
VH: QVQLQQWGAGRLKPSETLSLTCAVYGGSFSGYYWSWIRQPPGKGLEWIGEIDHSGSTNYNSSLKSRVTISVDTSKKWFSLKLSSVTAADTAVYYCARAHLIGDCGGGRCYSGPDPSNWFDPWGQGTLVTVSS
VL: SSELTQDPAVSVALGQTVRITCQGDSLRSYYASWYQQKPGQAPILVIYGKDNRPSGIPDRFSGSSSENTASLTITGAQAEDEADYYCNCRDTSGNHPVFGGGTKLTVL
Kd [1]: 9740 pM
other [2]: 49.6 ng/mL

B14: hRBD11 (antibody, V domains shown)
VH: QVQLQESGPGLVKPSQTLSLTCTVSGGSISSGGYYWSWIRQHPGKGLEWIGYIFYSGSTYYNPSLKSRVIISVDTSKNQFSLKLSSVTAADTAAYYCARVNRVYGSGSYSLDPWGQGTLVTVSS
VL: QSALTQPASVSGSPGQSITISCTGTSRDVGDYDYVSWYQQHPGKAPKLMIYEGSERPSGVSNRFSGSKSGNTASLTISGLQAEDEADYYCCSYTGSSTSFLFGTGTKVTVL
Kd [1]: 8870 pM

B15: hRBD12 (antibody, V domains shown)
VH: EVQLVESGGGLVQPGGSLRLSCAASGLTVSSNYMSWVRQAPGKGLEWVSVIYSGGSTYYADSVKGRFTISRDNSKNTLYLLMNSLRAEDTAVYYCARDLQQLGGMDVWGQGTTVTVSS
VL: not shown
Kd [1]: 219 pM
other [2]: 20.8 ng/mL

B16: hRBD1 (antibody, V domains shown)
VH: QVQLVQSGSELKKPGASVKVSCKASGNTLTNHALNWVRQAPGQGLEWMGWINTNTGIPTYAQGFTGRFVFSLDTSVSTAYLQISSLKAEDTAVYYCARVGQTAIAALDDAFDIWGQGTMVTVSS
VL: not shown
Kd [1]: 17.1 pM
other [2]: 83 ng/mL

B17: hRBD2 (antibody, V domains shown)
VH: QVQLVQSGSELKKPGASVKVSCKASGYTFSNYAINWVRQAPGQGLEWMGWINTNTGHPTYAQGFTGRFVFSLDASVTTAYLQISSLKAEDTAVYYCARVGRTAIAALDDAFDIWGQGTMVTVSS
VL: not shown
Kd [1]: 65.2 pM
other [2]: 91.7 ng/mL

B18: hRBD13 (antibody, V domains shown)
VH: QVQLVESGGGVVQPGRSLRLSCAVSGFTFRNYGMDWVRQAPGKGLEWVAVISYDGSNKYYADSVKGRFTISRDNSKNTLFLHLNSLRAEDTAVYYCAKAGGGPYCGGGNCYMHYFDYWGQGTQVTVSS
VL: DIQMTQSPSSLSASVGDRVTITCQASQDINNYLNWYQQKPGKAPKLLIYDASNLETGVPLRFSGSGSATHFSFTISSLQPEDIATYYCQQYDHLPCTFGQGTKLEIR
Kd [1]: < 1 pM
other [2]: 48600 ng/mL

B19: hRBD16 (antibody, V domains shown)
VH: EVQLVESGGALIQPGGSLRLSCAASGFTVSSNYMYWVRQAPGKGLEWVSLIYPGGSTFYADSVKGRFTISRDNSENTLYLQMNSLRAEDTAVYYCARGPYGDSNWGQGTLVTVSS
VL: DIQMTQSPSSLSASVGDRVTITCQASQDIRNYLNWYQQKPGKAPKLLIYDASNLKTGVPSRFSGSGSGTDFTFTISSLQPEDIATYYCQQYDNLPITFGQGTRLEIK
Kd [1]: < 1 pM

Reference: article PMC12167710 (Nature Biotechnology, 2024)
